According to paper PMC7857493:

Key:
[1] = target: T1, Human neutrophil-derived myeloperoxidase (nMPO) (human), P05164; assay: native MS; whole unfractionated intact nMPO infused by nano-ESI (gold-coated capillaries) into a modified Q-Exactive, positive ion polarity
[2] = target: T1, Human neutrophil-derived …; assay: mass photometry; single-molecule mass photometry of intact nMPO on coverslips with silicone gaskets; apparent; diprotomer (ααββ) to monoprotomers (αβ)

stoichiometry N [1]: 2
Kd [2]: 0.05 nM
percent diprotomer [2]: 93%
percent monoprotomer [2]: 7%
stoichiometry N [2]: 2
B1: Human neutrophil-derived myeloperoxidase (nMPO), P05164 279-745; P05164 279-745 (enzyme)
chain 1: not shown
chain 2: VNCETSCVQQPPCFPLKIPPNDPRIKNQADCIPFFRSCPACPGSNITIRNQINALTSFVDASMVYGSEEPLARNLRNMSNQLGLLAVNQRFQDNGRALLPFDNLHDDPCLLTNRSARIPCFLAGDTRSSEMPELTSMHTLLLREHNRLATELKSLNPRWDGERLYQEARKIVGAMVQIITYRDYLPLVLGPTAMRKYLPTYRSYNDSVDPRIANVFTNAFRYGHTLIQPFMFRLDNRYQPMEPNPRVPLSRVFFASWRVVLEGGIDPILRGLMATPAKLNRQNQIAVDEIRERLFEQVMRIGLDLPALNMQRSRDHGLPGYNAWRRFCGLPQPETVGQLGTVLRNLKLARKLMEQYGTPNNIDIWMGGVSEPLKRKGRVGPLLACIIGTQFRKLRDGDRFWWENEGVFSMQQRQALAQISLPRIICDNTGITTVSKNNIFMSNSYPRDFVNCSTLPALNLASWREAS
modifications: heme covalently links the α- and β-chains; Met251 and Met253 oxidation and Trp255 oxidation variants; polypeptide truncation variants | N-glycans at Asn323 and Asn483 (mainly paucimannosidic M2F-M3F), Asn355 and Asn391 (mainly oligomannosidic M5-M6), Asn729 (largely unoccupied or GlcNAc1-GlcNAc1F); Met and Trp mono-/di-oxidation, Tyr mono-chlorination; Cys319-Cys319 bridge between the two …
